Measurements published in paper PMC5510750 (Immunity, 2017).

T1: IFN-λR1, soluble recombinant receptor (UniProt Q8IU57 21-226)
T1 sequence: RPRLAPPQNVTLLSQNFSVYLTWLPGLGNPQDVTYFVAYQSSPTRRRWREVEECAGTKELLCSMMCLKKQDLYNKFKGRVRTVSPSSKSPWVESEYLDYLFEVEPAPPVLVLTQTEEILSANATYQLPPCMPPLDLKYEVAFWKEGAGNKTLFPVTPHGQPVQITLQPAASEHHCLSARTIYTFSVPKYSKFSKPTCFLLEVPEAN

B1: H11/IFN-λR1 binary complex (complex)
chain 1: GSARGCHIAQFKSLSPRELQAFKRAKDALEESLLLKDCKCRSRLFPRTWDLRQLQVRERPVALEAELALTLKVLDATADTDPALGDVLDQPLHTLHHILSQLRACIQPQPTAGPRTRGRLHRWLHRLQEAPKKESPGCLEASVTFNLFRLLARDLNCVASGDLCEAAAHHHHHHHH
chain 2: RPRLAPPQNVTLLSQNFSVYLTWLPGLGNPQDVTYFVAYQSSPTRRRWREVEECAGTKELLCSMMCLKKQDLYNKFKGRVRTVSPSSKSPWVESEYLDYLFEVEPAPPVLVLTQTEEILSANATYQLPPCMPPLDLKYEVAFWKEGAGNKTLFPVTPHGQPVQITLQPAASEHHCLSARTIYTFSVPKYSKFSKPTCFLLEVPEAN
B2: IL-10Rβ, monomeric soluble receptor (receptor)
chain: MVPPPENVRMNSVNFKNILQWESPAFAKGNLTFTAQYLSYRIFQDKCMNTTLTECDFSSLSKYGDHTLRVRAEFADEHSDWVNITFCPVDDTIIGPPGMQVEVLADSLHMRFLAPKIENEYETWTMKNVYNSWTYNVQYWKNGTDEKFQITPQYDFEVLRNLEPWTTYCVQVRGFLPDRNKAGEWSEPVCEQTTHDETVPS
modifications: Alexa 647 label (in the yeast staining)

What was measured:
Experiment in all cases: SPR
[1] = target: T1, IFN-λR1, soluble recombinant receptor
[2] = target: B2
[3] = target: B1

Row | Kd [1] [nM] | Binder | other results
1 | ~850 | Wild-type IFN-λ3, recombinant (ligand) VPVARLRGALPDARGCHIAQFKSLSPQELQAFKRAKDALEESLLLKDCKCRSRLFPRTWDLRQLQVRERPVALEAELALTLKVLEATADTDPALGDVLDQPLHTLHHILSQLRACIQPQPTAGPRTRGRLHHWLHRLQEAPKKESPGCLEASVTFNLFRLLTRDLNCVASGDLCV | 
2 |  | B1 | Kd [2]: 560 nM
3 | ~150 | IFN-λ3 H11, recombinant (designed binder) GSARGCHIAQFKSLSPRELQAFKRAKDALEESLLLKDCKCRSRLFPRTWDLRQLQVRERPVALEAELALTLKVLDATADTDPALGDVLDQPLHTLHHILSQLRACIQPQPTAGPRTRGRLHRWLHRLQEAPKKESPGCLEASVTFNLFRLLARDLNCVASGDLCEAAAHHHHHHHH | 
4 |  | B2 | fold increase in affinity against the wild-type IFN-λ3/IFN-λR1 binary complex [3]: 30 fold
